Columns and labels:
[1] = target: T1, 人PD-1 (on CHOZn/PD-1 stably transfected cells) (human, UniProt Q15116 25-288); experiment: flow cytometry; binding to CHOZn/PD-1 cells, anti Human IgG-FITC detection
T1 construct: whole, on cells; also called hPD-1; GS-J2/PD-1

[2] = target: T1, 人PD-1 (on CHOZn/PD-1 stably transfected …); experiment: flow cytometry; competition with 50ug/ml hPD-L1-Biotin on CHOZn/PD-1 cells

T1 sequence (Q15116 25-288): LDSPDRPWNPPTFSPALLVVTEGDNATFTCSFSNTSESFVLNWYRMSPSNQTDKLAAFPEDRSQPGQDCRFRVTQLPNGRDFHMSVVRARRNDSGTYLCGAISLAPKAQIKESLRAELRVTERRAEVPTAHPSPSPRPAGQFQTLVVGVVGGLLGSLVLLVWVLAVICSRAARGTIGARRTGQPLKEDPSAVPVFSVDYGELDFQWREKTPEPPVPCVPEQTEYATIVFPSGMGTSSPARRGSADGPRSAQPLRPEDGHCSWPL

EC50 [1]: 1.06 µg/mL
IC50 [2]: 1.3 µg/mL
B1: PD-1Nb-Fc融合蛋白 (Fc fusion)
chain: QVQLQESGGGSVQAGGSLRLSCAASGYTYSSYYMGWFRQAPGKEREGVAAIDRDGRTSYADSVKGRFTISRDNAKNTLYLQMNSLKPEDTAMYTCAAVLVLSGYYSDYGLVPPPFEYNYWGQGTQVTVSS
notes: also called PD-1纳米抗体; not shown: IgG4 Fc supplied by the pFUSE-IgG4 vector (Invivogen)

— patent publication CN112442122A (SHANGHAI NOVAMAB BIOPHARMACEUTICALS CO LTD, dated 2021)
